Source: patent US20080311122A1, “Antagonists of Hmgb1 and/or Rage and Methods of Use Thereof” (Medimmune, LLC, priority 2005, published 2008)
Entries after “also recorded” stand apart in the source; their conditions may differ.

T1: HMG1 peptides (Homo sapiens, UniProt P09429)
T1 sequence (P09429 91-169 P98L): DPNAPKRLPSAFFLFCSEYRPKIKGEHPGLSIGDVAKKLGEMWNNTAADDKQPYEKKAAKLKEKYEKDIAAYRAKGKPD

T2: HMG1 peptides (Homo sapiens, UniProt P09429)
T2 sequence (P09429 150-183): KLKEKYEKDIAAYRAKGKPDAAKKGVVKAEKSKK

B1: S12: human anti-HMG1 antibody; VL/VH aa SEQ ID NO: 62/64 (antibody, listed as Homo sapiens, V domains shown)
VH: EVQLLESGGGLVQPGGSLRLSCAASGFTFSKYIMHWVRQAPGKGLEWVSGIVPSGGLTEYADSVKGRFTISRDNSKNTLYLQMNSLRAEDTATYYCAKEIFGQFDYWGQGTLVTVSS
VL: AQSALTQPPSVSAAPRQRVTISCSGSTSNIGNNAVTWYQYFPGKAPKLLIYSDNQRPSGVPDRFSGSKSGTSASLAITGLQAEDEADYYCQSYDRGLSVVFGGGTKLTVL
B2: S16: human anti-HMG1 antibody, ATCC PTA-6259; VL/VH aa SEQ ID NO: 13/15 (antibody, listed as Homo sapiens, V domains shown)
VH: EVQLLESGGGLVQPGGSLRLSCAASGFTFSWYSMLWVRQAPGKGLEWVSYISPSGGFTNYADSVKGRFTISRDNSKNTLYLQMNSLRAEDTAVYYCARWDYNSGWYYDHWGQGTLVTVSS
VL: AQDIQMTQSPDTLSLSPGERATLSCRASQSVNSRNLAWYQQKPGQAPRLLIYGASTRATGIPDRFSGSVSGTEFTLTISSLQPDDFATYYCQQYNSYFTFGQGTKLEIK
B3: E11: human anti-HMG1 antibody, recognizes HMG1 A-Box; VL/VH aa SEQ ID NO: 24/26 (antibody, listed as Homo sapiens, V domains shown)
VH: EVQLLESGGGLVQPGGSLRLSCAASGFTFSRYQMNWVRQAPGKGLEWVSSISPSGGHTHYADSVKGRFTISRDNSKNTLYLQMNSLRAEDTAVYYCAKDGRQGKISTVDHWGQGTLVTVSS
VL: AQDIQMTQSPGTLSLSPGERATLSCRASQSVRSNFLAWYQQKPGQAPRLLIYGASRRASGIPDRFSGSGFGADFTLSISRLEPEDFAVYYCQQYGSSPNTFGQGSRVEIK
B4: G9: human anti-HMG1 antibody; VL/VH aa SEQ ID NO: 34/36 (antibody, listed as Homo sapiens, V domains shown)
VH: EVQLLESGGGLVQPGGSLRLSCAASGFTFSSYDMFWVRQAPGKGLEWVSRISPSGGYTYYADSVKGRFTISRDNSKNTLYLQMNSLRAEDTAVYYCARLRYFDSRGYAFDIWGQGTMVTVSS
VL: AQDIQMTQSPGTLSLSPGERATLSCRASQSVRSSYLAWYQQKPGQAPRLLIYGASTRATGIPDRFSGSGSGTDFTLTISRLEPEDFAVYYCQQYGTSRWTFGQGTKVEIK
B5: S10: human anti-HMG1 antibody; VL/VH aa SEQ ID NO: 58/60 (antibody, listed as Homo sapiens, V domains shown)
VH: EVQLLESGGGLVQPGGSLRLSCAASGFTFSWYDMWWVRQAPGKGLEWVSWIVPSGGITAYADSVKGRFTISRDNSKNTLYLQMNSLRAEDTATYYCARGNYGPSPFDYWGQGTLVTVSS
VL: AQDIQMTQSPGTLSLSPGERATLSCRATQSVRKNFLAWYQQKPGQAPRLLIYDASSRATGIPDRFSGSGSGTDFTLTISRLEPEDFAVYYCQQYGNSPIIFGQGTRLEIK
B6: G2: human anti-HMG1 IgG1 from Fab phage display library; VL/VH aa SEQ ID NO: 30/32 (antibody, listed as Homo sapiens, V domains shown)
VH: EVQLLESGGGLVQPGGSLRLSCAASGFTFSWYKMQWVRQAPGKGLEWVSGISPSGGSTAYADSVKGRFTISRDNSKNTLYLQMNSLRAEDTAVYYCAKMGLFNTGNSYVDYWGQGTLVTVSS
VL: AQSELTQPPSVSEAPGQRVTISCSGSTSNIGNNAVIWYQQLPGKAPKLLIYYDDLLPSGVSDRFSGSKSGTSGSLAISGLQSEDEADYYCASWDDNLNGPLFGGGTKLTVL

Legend:
HMG1 peptides [1] = target: T1, HMG1 peptides; assay: HMG1 B Box and peptide mapping ELISA; assay type: binding; details: B Box peptide ELISA
Protocol: (§1) HMG1 B Box and Peptide Mapping: Individual wells of a 96-well immunoplate (EIA/RIA plate, High binding, Costar) were coated with HMG1 B Box peptide amino acids 91-169 (FIG. 5A) or amino acids 150-183 (FIG. 5B) at 10 μg/ml in PBS at 4° C. overnight. The plate was then blocked with 4% milk powder dissolved in PBS at 37° C. for 1 hour. The blocking solution was removed and replaced with human anti-HMG1 antibodies at various concentrations (see FIGS. 5A-B). The plate was then washed (ELX-405 Plate washer, BIO-TEK) and secondary antibody (anti-human IgG-HRP, PIERCE) was added at a final concentration of 1:125,000 at 37° C. for 1 hour. HRP activity was detected with Sureblue HRP substrate (KPL). Plates were read at 450 nm using a Kinetic Microplate Reader (Molecular Devices). To obtain more detailed peptide mapping information, similar ELISA assays were performed using 16 biotinylated overlapping peptides spanning the HMGB1 protein from amino acid 1 to 215 as follows, maxisorp microtiter plate was coated with 2 μg/ml of NeutroAvidin (Pierce) overnight at 4° C. After washing and blocking with 1% BSA in PBS, the biotinylated peptides were individually added into the avidin coated wells and incubated for 30 min at room temperature. The serial diluted antibody G4, S16 and S6 at the initial concentration at 10 μg/ml were then transferred into the wells followed by adding mouse anti human IgG-HRP conjugate (Pierce). Detection was accomplished by adding 50 μl of tetramethylbenzidine (TMB) substrate (KPL) and the absorbance was read at […]. The peptides used were amino acids: 46-63; 61-78; 76-93; 91-108; 106-123; 136-153; 151-168; 166-183; 179-185; 181-198; and 196-215.

HMG1 peptides [2] = target: T2, HMG1 peptides; assay: HMG1 B Box and peptide mapping ELISA; assay type: binding; details: B Box peptide ELISA; remark: listed apart in the source
Protocol: as §1

[3] = test system: passive CIA mouse model of arthritis; assay: Passive collagen-induced arthritis (CIA) mouse model; assay type: in vivo; details: percent protection, isotype control subtracted
Protocol: Induction of Passive Collagen Induced Arthritis (CIA): To establish an arthritis model six-eight week old male DBA/1J mice (Jackson Labs, Bar Harbor, Me.) were used. Generally 5-8 mice per group are used, On day 0, mice were immunized with 2 mg/mouse of anti-collage mAb cocktail (Chemicon # ECM1100, 10 mg/ml) intravenously, i.v. at tail. Mice were subsequently injected with 50 μg LPS/mouse, i.p. on day 3. Each experiment had several groups of animals as follows: groups A-E in experiment 1, groups G-J in experiment 2 and groups L-N). An additional group of mice (groups F, K and O) were untreated as normal controls.
Monitoring Disease: Beginning at day 0 all animals were observed daily to assess the status of the disease in their paws, which was done by assigning a qualitative clinical score to each of the paws. Every day, each animal has its 4 paws scored according to its state of clinical disease. The scoring is done by two observers, with at least one blinded. In addition, each mouse is weighed, to follow body weight changes, at the same time the paws are scored (see FIGS. 6A and 6D)
The grading scale for the 4 lateral digits of each paw are graded as involved or not involved, i.e., 1 or 0. For example, a maximally involved left rear paw would be scored: ankle=3, midfoot=3, digits=4 (clinical score=10 units) We would repeat this for each paw and sum the scores. […]

[4] = test system: Tx-HMGB1+LPS stimulated IL-6 release (TLR4 signaling); assay: Inhibition of HMG1 mediated enhancement of TLR signaling, Tx-HMGB1+LPS in human PBMCs; assay type: cell-based
Protocol: Cytokine Release Assays: Human PBMCs were treated with rHMG1 in the presence or absence of Polymyxin B (FIG. 20). Human PBMCs were treated with rHMG1 and Tx-HMGB1 at concentrations up to 4 μg/ml (FIG. 21). ˜16 μg/mL (512 nM) Tx-HMGB1 was incubated with 61.5 EU/mL (6.15 ng/mL; approx. 0.615 nM) LPS overnight at 4° C. The sample was diluted as indicated and added to human PBMCs (FIG. 22). In all assays the cells were incubated overnight at 37° C., 5% CO2 and the supernatants were assayed for cytokine levels by Bioplex assay. When present Polymyxin B was used at 8 U/mL.
Inhibition of HMG1 Mediated Enhancement of TLR Signaling: Human PBMCs were treated with Tx-HMGB1+LPS (as described above) in combination with either the Anti-HMG1 antibody E11, S16 or G4, anti-TLR4 antibody, or isotype control antibodies (R3, IgG2a) and incubated overnight at 37° C., 5% CO2 in the presence of 8 U/mL Polymyxin B. The supernatants were assayed for cytokine levels (FIG. 22, right panel).

| Molecule | binding to HMG1 peptide 91-169 (HMG1 peptides [1]) | binding to HMG1 peptide 150-183 (HMG1 peptides [2]) | in vivo CIA passive [3] [%] | inhibition of Tx-HMGB1+LPS induced IL-6 release [4] |
| --- | --- | --- | --- | --- |
| B1 | bind to HMG1 peptide 91-169 | only S12 binds to HMG1 peptide 150-183 | – | – |
| B2 | bind to HMG1 peptide 91-169 | – | 0 | reduction in IL-6 release to near background levels; also recorded: block the Tx-HMG1 mediated enhancement of TLR4 signaling; also recorded: can be inhibited |
| B3 | – | – | – | reduction in IL-6 release to near background levels; also recorded: block the Tx-HMG1 mediated enhancement of TLR4 signaling; also recorded: can be inhibited |
| B4 | do not bind either of the HMG1 B Box peptides | do not bind either of the HMG1 B Box peptides | – | – |
| B5 | do not bind either of the HMG1 B Box peptides | do not bind either of the HMG1 B Box peptides | – | – |
| B6 | do not bind either of the HMG1 B Box peptides | do not bind either of the HMG1 B Box peptides | 0 | – |
